Laboratory results: JP2014043405A (dated 2014)
Where a chain is given by its changes, count along the chain named. One block for each binder: values may come before it.

Assays:
ヒトFcγRIa = ヒトFcγRIa (human, UniProt P12314 16-292); assay: SPR, figure legend (Fig. 3)
ヒトFcγRIIa (R) [1] = target: T1, ヒトFcγRIIa (R) (human, UniProt P12318 34-217); assay: SPR, figure legend (Fig. 4)
T1 construct: extracellular domain; N-glycans trimmed with Endo F1/F2/F3 for the crystals; also called FcγRIIa R型
T1 sequence (looked up): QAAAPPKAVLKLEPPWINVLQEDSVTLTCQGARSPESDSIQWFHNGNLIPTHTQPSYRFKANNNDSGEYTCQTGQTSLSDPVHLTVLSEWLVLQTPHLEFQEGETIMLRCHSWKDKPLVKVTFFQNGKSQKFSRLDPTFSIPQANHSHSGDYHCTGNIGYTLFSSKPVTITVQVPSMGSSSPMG

ヒトFcγRIIa (H) = target: T2, ヒトFcγRIIa (H) (human, UniProt P12318 34-217); assay: SPR, figure legend (Fig. 5)
T2 construct: extracellular domain; also called FcγRIIa H型
T2 sequence (looked up): T1 sequence (looked up) with R134H

ヒトFcγRIIb [2] = target: T3, ヒトFcγRIIb (human, UniProt P31994 43-217); assay: SPR, figure legend (Fig. 6)
T3 construct: extracellular domain; for the crystals it was expressed with kifunensine and its N-glycans trimmed with Endo F1; also called FcγRIIb細胞外領域
T3 sequence (looked up): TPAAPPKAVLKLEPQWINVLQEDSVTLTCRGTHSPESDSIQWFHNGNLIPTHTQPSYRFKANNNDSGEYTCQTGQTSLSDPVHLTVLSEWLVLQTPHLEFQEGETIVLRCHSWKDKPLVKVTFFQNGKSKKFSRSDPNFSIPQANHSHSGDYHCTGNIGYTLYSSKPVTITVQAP

ヒトFcγRIIIa (F) = target: T4, ヒトFcγRIIIa (F) (human, UniProt P08637 17-208); assay: SPR, figure legend (Fig. 7)
T4 construct: extracellular domain
T4 sequence (P08637 17-208): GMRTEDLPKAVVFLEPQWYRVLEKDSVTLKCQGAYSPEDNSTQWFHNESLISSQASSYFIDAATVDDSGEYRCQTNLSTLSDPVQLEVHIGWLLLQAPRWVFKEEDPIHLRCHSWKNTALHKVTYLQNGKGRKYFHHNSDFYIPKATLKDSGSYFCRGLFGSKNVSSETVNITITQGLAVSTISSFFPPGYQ

ヒトFcRn = target: T5, ヒトFcRn (human, UniProt P55899 24-290; P61769 21-119, limits assumed); assay: SPR, figure legends of Figs. 3-11
T5 construct: also called human FcRn; complex of human FcRn and human beta-2 microglobulin

マウスFcγRI [3] = target: T6, マウスFcγRI (mouse, UniProt P26151 25-297, limits assumed); assay: SPR, Biacore; antibody captured on immobilised human FcRn, FcγR as analyte, pH 7.4, 25C
T6 construct: also called mouse FcγRI
T6 sequence (looked up): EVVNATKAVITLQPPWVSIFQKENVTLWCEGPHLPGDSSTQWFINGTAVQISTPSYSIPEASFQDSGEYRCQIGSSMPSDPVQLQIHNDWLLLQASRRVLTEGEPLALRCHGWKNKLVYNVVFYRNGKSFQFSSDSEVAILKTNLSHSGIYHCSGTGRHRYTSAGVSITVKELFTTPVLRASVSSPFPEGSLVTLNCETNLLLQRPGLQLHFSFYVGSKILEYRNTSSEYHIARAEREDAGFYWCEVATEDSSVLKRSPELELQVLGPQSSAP

マウスFcγRIIb [4] = target: T7, マウスFcγRIIb (mouse, UniProt P08101 30-210, limits assumed); assay: as above
T7 construct: also called mouse FcγRIIb
T7 sequence (looked up): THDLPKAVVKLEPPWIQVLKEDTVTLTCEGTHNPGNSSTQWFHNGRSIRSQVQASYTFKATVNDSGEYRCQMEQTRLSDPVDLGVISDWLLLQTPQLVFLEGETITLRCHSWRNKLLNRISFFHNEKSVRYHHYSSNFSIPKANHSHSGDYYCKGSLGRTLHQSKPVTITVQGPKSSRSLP

マウスFcγRIII [5] = target: T8, マウスFcγRIII (mouse, UniProt P08508 31-215, limits assumed); assay: as above
T8 construct: also called mouse FcγRIII
T8 sequence (looked up): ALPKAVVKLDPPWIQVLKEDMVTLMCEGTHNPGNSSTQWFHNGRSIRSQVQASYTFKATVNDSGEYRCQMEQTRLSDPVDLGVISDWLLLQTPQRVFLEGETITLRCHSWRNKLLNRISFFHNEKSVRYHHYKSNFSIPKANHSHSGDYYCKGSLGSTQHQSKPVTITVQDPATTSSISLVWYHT

マウスFcγRI [6] = target: T6, マウスFcγRI; assay: SPR, Biacore; antibody captured on immobilised mouse FcRn, FcγR as analyte, pH 7.4, 25C
マウスFcγRIIb [7] = target: T7, マウスFcγRIIb; assay: as above
マウスFcγRIII [8] = target: T8, マウスFcγRIII; assay: as above
ヒトFcγRIIa (R) [9] = target: T1, ヒトFcγRIIa (R); assay: SPR, KD; reference IL6R-BP230/IL6R-L
ヒトFcγRIIb [10] = target: T3, ヒトFcγRIIb; assay: SPR, KD; reference IL6R-BP230/IL6R-L
ヒトFcγRIIb [11] = target: T3, ヒトFcγRIIb; assay: SPR, KD; reference IL6R-B3/IL6R-L; the lowest of the named variants
ヒトFcγRIIb [12] = target: T3, ヒトFcγRIIb; assay: SPR; KD for FcγRIIaH divided by KD for FcγRIIb
ヒトFcγRIIb [13] = target: T3, ヒトFcγRIIb; assay: SPR, KD; reference IL6R-B3/IL6R-L; the highest of the named variants

Sequence of ヒトFcγRIa (P12314 16-292): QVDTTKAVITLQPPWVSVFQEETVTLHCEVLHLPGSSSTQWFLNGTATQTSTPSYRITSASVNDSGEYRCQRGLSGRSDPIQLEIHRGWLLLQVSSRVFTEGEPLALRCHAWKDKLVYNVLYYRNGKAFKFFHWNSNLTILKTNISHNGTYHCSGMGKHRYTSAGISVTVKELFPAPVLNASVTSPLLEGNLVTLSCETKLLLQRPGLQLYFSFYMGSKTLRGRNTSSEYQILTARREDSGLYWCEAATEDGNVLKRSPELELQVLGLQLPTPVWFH

binding result (ヒトFcγRIa): binds
binding result (ヒトFcγRIIa (R) [1]): binds
binding result (ヒトFcγRIIa (H)): binds
binding result (ヒトFcγRIIb [2]): binds
binding result (ヒトFcγRIIIa (F)): binds
binding result (ヒトFcRn): binds
binding result (マウスFcγRI [3]): binds
binding result (マウスFcγRIIb [4]): binds
binding result (マウスFcγRIII [5]): binds
B1: Fv4-IgG1-F157 (antibody)
heavy: QVQLQESGPGLVKPSETLSLTCAVSGHSISHDHAWSWVRQPPGEGLEWIGFISYSGITNYNPSLQGRVTISRDNSKNTLYLQMNSLRAEDTAVYYCARSLARTTAMDYWGEGTLVTVSSASTKGPSVFPLAPSSKSTSGGTAALGCLVKDYFPEPVTVSWNSGALTSGVHTFPAVLQSSGLYSLSSVVTVPSSSLGTQTYICNVNHKPSNTKVDKKVEPKSCDKTHTCPPCPAPELLGGPSVFLFPPKPKDTLMISRTAEVTCVVVDVSHEDPEVKFNWYVDGVEVHNAKTKPREEQYNSTYRVVSVLTPLHQDWLNGKEYKCKVSNKALPAPIEKTISKAKGQPREPQVYTLPPSRDELTKNQVSLTCLVKGFYPSDIAVEWESNGQPENNYKTTPPVLDSDGSFFLYSKLTVDKSRWQQGNVFSCSVLHEALHYHYTQKSLSLSP
light: DIQMTQSPSSLSASVGDSVTITCQASTDISSHLNWYQQKPGKAPELLIYYGSHLLSGVPSRFSGSGSGTDFTFTISSLEAEDAATYYCGQGNRLPYTFGQGTKVEIERTVAAPSVFIFPPSDEQLKSGTASVVCLLNNFYPREAKVQWKVDNALQSGNSQESVTEQDSKDSTYSLSSTLTLSKADYEKHKVYACEVTHQGLSSPVTKSFNRGEC
notes: also called VH3-IgG1-F157/VL3-CK

binding result (マウスFcγRI [6]): no binding
binding result (マウスFcγRIIb [7]): binds
binding result (マウスFcγRIII [8]): binds
B2: mPM1-mIgG1-mF3 (antibody)
heavy: DVQLQESGPVLVKPSQSLSLTCTVTGYSITSDHAWSWIRQFPGNKLEWMGYISYSGITTYNPSLKSRISITRDTSKNQFFLQLNSVTTGDTSTYYCARSLARTTAMDYWGQGTSVTVSSAKTTPPSVYPLAPGSAAQTNSMVTLGCLVKGYFPEPVTVTWNSGSLSSGVHTFPAVLQSDLYTLSSSVTVPSSTWPSETVTCNVAHPASSTKVDKKIVPRDCGCKPCICTVPEVSSVFIFPPKPKDVLYITLEPKVTCVVVDISKDDPEVQFSWFVDDVEVHTAQTQPREEQFNSTFRSVSELPIMHQDWLNGKEFKCRVNSAAFPAPIEKTISKTKGRPKAPQVYTIPPPKEQMAKDKVSLTCMITDFFPEDITVEWQWNGQPAENYKNTQPIMDTDGSYFVYSKLNVQKSNWEAGNTFTCSVLHEGLKFHHTEKSLSHSPGK
light: DIQMTQTTSSLSASLGDRVTISCRASQDISSYLNWYQQKPDGTIKLLIYYTSRLHSGVPSRFSGSGSGTDYSLTINNLEQEDIATYFCQQGNTLPYTFGGGTKLEIKRADAAPTVSIFPPSSEQLTSGGASVVCFLNNFYPKDINVKWKIDGSERQNGVLNSWTDQDSKDSTYSMSSTLTLTKDEYERHNSYTCEATHKTSTSPIVKSFNRNEC
notes: mouse IgG1; also called mPM1H-mIgG1-mF3/mPM1L-mk1

binding relative to IL6R-BP230/IL6R-L (ヒトFcγRIIa (R) [9]): 0.9 fold
fold enhancement of binding against IL6R-BP230/IL6R-L (ヒトFcγRIIb [10]): 1.1 fold
B3: IL6R-BP478/IL6R-L (antibody)
chain 1: QVQLQESGPGLVKPSETLSLTCAVSGHSISHDHAWSWVRQPPGEGLEWIGFISYSGITNYNPSLQGRVTISRDNSKNTLYLQMNSLRAEDTAVYYCARSLARTTAMDYWGEGTLVTVSSASTKGPSVFPLAPCSRSTSESTAALGCLVKDYFPEPVTVSWNSGALTSGVHTFPAVLQSSGLYSLSSVVTVPSSSLGTKTYTCNVDHKPSNTKVDKRVESKYGPPCPPCPAPDLLGDDSVFLFPPKPKDTLMISRTPEVTCVVVDVSDEDGEVKFNWYVDGVEVHNAKTKPREEQDNSTYRVVSVLTVLHQDWLNGKEYKCKVSNKALPRPIEKTISKAKGQPREPQVYTLPPSRDELTKNQVSLTCLVKGFYPSDIAVEWESNGQPENNYKTTPPVLDSDGSFFLYSKLTVDKSRWQQGNVFSCSVMHEALHNHYTQESLSLSP
chain 2: not shown

fold enhancement of binding, IL6R-B3/IL6R-L = 1 (ヒトFcγRIIb [11]): 321 fold
B4: IL6R-BP495/IL6R-L (antibody)
chain 1: QVQLQESGPGLVKPSETLSLTCAVSGHSISHDHAWSWVRQPPGEGLEWIGFISYSGITNYNPSLQGRVTISRDNSKNTLYLQMNSLRAEDTAVYYCARSLARTTAMDYWGEGTLVTVSSASTKGPSVFPLAPSSKSTSGGTAALGCLVKDYFPEPVTVSWNSGALTSGVHTFPAVLQSSGLYSLSSVVTVPSSSLGTQTYICNVNHKPSNTKVDKKVEPKSCDKTHTCPPCPAPELLGDDSVFLFPPKPKDTLMISRTPEVTCVVVDVGEEDGEVKFNWYVDGVEVHNAKTKPREEQDNSTYRVVSVLTVLHQDWLNGKEYKCKVSNKALPRPIEKTISKAKGQPREPQVYTLPPSRDELTKNQVSLTCLVKGFYPSDIAVEWESNGQPENNYKTTPPVLDSDGSFFLYSKLTVDKSRWQQGNVFSCSVMHEALHNHYTQESLSLSP
chain 2: not shown

KD (IIaH)/KD (IIb) (ヒトFcγRIIb [12]): 108 ratio
B5: IL6R-BP480/IL6R-L (antibody)
chain 1: B4 chain 1 with E235D, V268L, G269S, E271D, D298Y, R332A
chain 2: not shown

fold enhancement of binding, IL6R-B3/IL6R-L = 1 (ヒトFcγRIIb [13]): 3100 fold
B6: IL6R-BP489/IL6R-L (antibody)
chain 1: B4 chain 1 with E235D, V266I, G269A, P398M
chain 2: not shown

KD (IIaH)/KD (IIb) (ヒトFcγRIIb [12]): 8360 ratio
B7: IL6R-BP426/IL6R-L (antibody)
chain 1: B4 chain 1 with E235D, G269A, E271D, D298Y
chain 2: not shown
